Measurements published in US20030091584A1 (AstraZeneca / MedImmune, published 2003).
Several values for one entry are separate records, joined by “and”; a condition that tells them apart may be missing. Equal values may be shown once.

What was measured:
[1] = biological target: T1, RSV F glycoprotein (NUF4) (respiratory syncytial virus); experiment: BIAcore, mAb vs NUF4 (2:1)
T1 chain 1: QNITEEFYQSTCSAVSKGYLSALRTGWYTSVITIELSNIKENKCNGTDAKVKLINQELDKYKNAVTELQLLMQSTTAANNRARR
T1 chain 2: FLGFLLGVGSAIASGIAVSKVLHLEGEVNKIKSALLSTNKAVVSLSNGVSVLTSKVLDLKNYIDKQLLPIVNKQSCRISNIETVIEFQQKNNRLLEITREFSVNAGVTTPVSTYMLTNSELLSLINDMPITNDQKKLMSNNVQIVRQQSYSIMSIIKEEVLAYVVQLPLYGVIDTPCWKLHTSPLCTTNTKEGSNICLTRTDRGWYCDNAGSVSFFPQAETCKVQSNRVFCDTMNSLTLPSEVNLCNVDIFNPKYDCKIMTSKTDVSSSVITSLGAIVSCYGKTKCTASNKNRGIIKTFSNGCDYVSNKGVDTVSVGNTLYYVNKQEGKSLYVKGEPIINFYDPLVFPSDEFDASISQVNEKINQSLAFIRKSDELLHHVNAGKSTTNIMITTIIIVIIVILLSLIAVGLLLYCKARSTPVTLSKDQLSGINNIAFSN

[2] = biological target: T2, F protein of wild type RSV A/Long (respiratory syncytial virus strain …, UniProt P12568 26-574); experiment: cell-based or functional assay
[3] = biological target: T3, F protein of RSV A/Long MARM with K272E, N276Y (respiratory syncytial virus strain …, UniProt P12568 26-574); experiment: IFA on MARM-infected HEp-2 cells
T3 construct: whole, on cells; also called MARM #10; MARM 10

[4] = biological target: T4, F protein of RSV A/Long MARM with K272E (respiratory syncytial virus strain …, UniProt P12568 26-574); experiment: IFA on MARM-infected HEp-2 cells
T4 construct: whole, on cells; also called MARM #6; MARM #9

[5] = biological target: T1, RSV F glycoprotein (NUF4); experiment: BIAcore, mAb vs NUF4 (1:1)
[6] = biological target: T5, F protein of RSV A/Long MARM with K272N (respiratory syncytial virus strain …, UniProt P12568 26-574); experiment: IFA on MARM-infected HEp-2 cells
T5 construct: whole, on cells; also called MARM B1

[7] = biological target: T6, F protein of RSV A/Long MARM with K272T (respiratory syncytial virus strain …, UniProt P12568 26-574); experiment: IFA on MARM-infected HEp-2 cells
T6 construct: whole, on cells; also called MARM B7; MARM B10

[8] = biological target: T7, F protein of RSV A/Long MARM with K272Q (respiratory syncytial virus strain …, UniProt P12568 26-574); experiment: IFA on MARM-infected HEp-2 cells
T7 construct: whole, on cells; also called MARM B9; B9

[9] = biological target: T8, F protein of RSV A/Long MARM with K272M (respiratory syncytial virus strain …, UniProt P12568 26-574); experiment: IFA on MARM-infected HEp-2 cells
T8 construct: whole, on cells; Seven independent isolates with the same change are kept as one molecule; also called MARM B2; MARM B3

[10] = biological target: T9, F protein of RSV MARM with K272Q, N262K (respiratory syncytial virus strain …, UniProt P12568 26-574); experiment: IFA on MARM-infected HEp-2 cells
T9 construct: whole, on cells; also called MARM #13; MARM 13

[11] = biological target: T2, F protein of wild type RSV A/Long; experiment: cell-based or functional assay; remark: listed apart in the source
[12] = biological target: T10, Bac-F; experiment: BIAcore, mAb vs Bac-F (1:1)
T10 construct: Construct and strain not described

[13] = biological target: T1, RSV F glycoprotein (NUF4); experiment: ITC, NUF4 titrated into antibody
[14] = biological target: T1, RSV F glycoprotein (NUF4); experiment: ITC, NUF4 titrated into antibody, 35 °C
[15] = biological target: T1, RSV F glycoprotein (NUF4); experiment: ITC, NUF4 titrated into antibody, 35 °C (1/Kb)
[16] = biological target: RSV F protein (immobilized on the BIAcore sensor chip) (respiratory syncytial virus); experiment: BIAcore, immobilized F protein;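 further: fab fragments as analytes binding F protein coupled to the chip via EDC/NHS chemistry, with blank surface signal subtracted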

Row | Binder | Kd [1] | Mean IC50 (Control), RSV microneutralization [2] | Mean IC50 (Curve), RSV microneutralization [2] | binding result [3] | binding result [4] | Kd [5] | binding result [10] | EC50 (nM), in vitro microneutralization of RSV Long [11] | Kd [12] | koff [1] | kon [1] | number in parentheses after KD (fold against SYNAGIS = 1) [1] | Fold Difference (Control IC50) [2] | Fold Difference (Curve IC50) [2] | ΔHb (binding enthalpy) [13] | Ka [14] | koff [5] | kon [5] | number in parentheses after KD (fold against SYNAGIS = 1) [5] | Kd [15] | further results
1 | SYNAGIS® (monoclonal antibody) (antibody, V domains shown, also called SYNAGIS ®/SYNAGIS ® (HC/LC)) VH: QVTLRESGPALVKPTQTLTLTCTFSGFSLSTSGMSVGWIRQPPGKALEWLADIWWDDKKDYNPSLKSRLTISKDTSKNQVVLKVTNMDPADTATYYCARSMITNWYFDVWGAGTTVTVSS VL: DIQMTQSPSTLSASVGDRVTITCKCQLSVGYMHWYQQKPGKAPKLLIYDTSKLASGVPSRFSGSGSGTEFTLTISSLQPDDFATYYCFQGSGYPFTFGGGTKLEIK | 312 nM | 0.535 µg/mL | 0.453 µg/mL | no binding (tested: 250 ng/ml) | no binding (tested: 250 ng/ml) | 8.7 nM | no binding (tested: 250 ng/ml) | 3.57 nM | 3.9 nM | – | – | – | – | – | – | – | – | – | – | – | binding result [6]: no binding (tested: 250 ng/ml); binding result [7]: no binding (tested: 250 ng/ml); binding result [8]: no binding (tested: 250 ng/ml); binding result [9]: no binding (tested: 250 ng/ml)
2 | A17d4 (monoclonal antibody) (antibody, V domains shown, mAb with framework and constant regions of SYNAGIS) VH: QVTLRESGPALVKPTQTLTLTCTFSGFSLSTAGMSVGWIRQPPGKALEWLADIWWDGKKSYNPSLKDRLTISKDTSKNQVVLKVTNMDPADTATYYCARDMIFNFYFDVWGQGTTVTVSS VL: DIQMTQSPSTLSASVGDRVTITCLPSSRVGYMHWYQQKPGKAPKLLIYDTMYQASGVPSRFSGSGSGTEFTLTISSLQPDDFATYYCFQFSGYPFTFGGGTKLEIK | 1.11 nM | 0.0354 µg/mL | 0.0342 µg/mL | – | – | 0.73 nM | – | – | – | 0.000292 s⁻¹ | 264000 M⁻¹ s⁻¹ | 281 fold | 15 fold | 13 fold | 16.3 kcal/mol | 7.5e+07 M⁻¹ | 0.000362 s⁻¹ | 499000 M⁻¹ s⁻¹ | 12 fold | 13 nM | –
3 | A13c4 (monoclonal antibody) (antibody, V domains shown, mAb with framework and constant regions of SYNAGIS) VH: QVTLRESGPALVKPTQTLTLTCTFSGFSLSTAGMSVGWIRQPPGKALEWLADIWWDGKKSYNPSLKDRLTISKDTSKNQVVLKVTNMDPADTATYYCARDMIFNFYFDVWGQGTTVTVSS VL: DIQMTQSPSTLSASVGDRVTITCSLSSRVGYMHWYQQKPGKAPKLLIYDTMYQSSGVPSRFSGSGSGTEFTLTISSLQPDDFATYYCFQGSGYPFTFGGGTKVEIK | 0.7 nM | 0.0375 µg/mL | 0.0376 µg/mL | – | – | 0.75 nM | – | – | – | 0.000225 s⁻¹ | 320000 M⁻¹ s⁻¹ | 446 fold | 14 fold | 12 fold | 16 kcal/mol | 1.07e+08 M⁻¹ | 0.000272 s⁻¹ | 365000 M⁻¹ s⁻¹ | 12 fold | 9 nM | –
4 | A4B4 (monoclonal antibody) (antibody, V domains shown, mAb; also called A4B4/A4B4 (HC/LC)) VH: QVTLRESGPALVKPTQTLTLTCTFSGFSLSTAGMSVGWIRQPPGKALEWLADIWWDDKKHYNPSLKDRLTISKDTSKNQVVLKVTNMDPADTATYYCARDMIFNFYFDVWGQGTTVTVSS VL: DIQMTQSPSTLSASVGDRVTITCSASSRVGYMHWYQQKPGKAPKLLIYDTFFLDSGVPSRFSGSGSGTEFTLTISSLQPDDFATYYCFQGSGYPFTFGGGTKLEIK | 2 nM | 0.0154 µg/mL | 0.0171 µg/mL | no binding (tested: 250 ng/ml) | no binding (tested: 250 ng/ml) | 0.57 nM | no binding (tested: 250 ng/ml) | – | 0.02 nM | 0.000401 s⁻¹ | 203000 M⁻¹ s⁻¹ | 156 fold | 35 fold | 27 fold | 22.2 kcal/mol | 2.69e+08 M⁻¹ | 0.000282 s⁻¹ | 496000 M⁻¹ s⁻¹ | 15 fold | ~3.7 nM | koff [12]: 1.06e-05 s⁻¹; kon [12]: 434000 M⁻¹ s⁻¹; number in parentheses after KD (fold against SYNAGIS = 1) [12]: 195 fold
5 | A13c4 (Fab fragment) (Fab, V domains shown, Fab) VH: QVTLRESGPALVKPTQTLTLTCTFSGFSLSTAGMSVGWIRQPPGKALEWLADIWWDGKKSYNPSLKDRLTISKDTSKNQVVLKVTNMDPADTATYYCARDMIFNFYFDVWGQGTTVTVSS VL: DIQMTQSPSTLSASVGDRVTITCSLSSRVGYMHWYQQKPGKAPKLLIYDTMYQSSGVPSRFSGSGSGTEFTLTISSLQPDDFATYYCFQGSGYPFTFGGGTKVEIK | – | 0.0258 µg/mL | 0.0264 µg/mL | – | – | – | – | 0.52 nM | – | – | – | – | 21 fold | 17 fold | – | – | – | – | – | – | koff [16]: 0.00028 s⁻¹; kon [16]: 781000 M⁻¹ s⁻¹ and 735000 M⁻¹ s⁻¹
